Measurements taken from paper PMC9430930.

The sequences below were run on NupR (NagR2) (Bacillus thuringiensis BMB171), ORF:032de0b7 (assay: EMSA). Conditions: NupR: 10 mM Tris-HCl pH 7.5, 50 mM NaCl, 0.5 mM DTT, 4% glycerol, 200 ng poly(dI-dC), 25 C 30 min, ComK/CcpA/PurR: 10 mM Tris-HCl pH 8.0, 50 mM KCl.

Sequence | binding
CTAATACAACACGGTTAATACCTTTTTTCATTTCAAAATTCCTCGCAATTTCATTGATTTTATTATGTAAGATAATACGTCTTACTTCTATAGAGTCATATCTAGTTTATTACATTTTATAAAAGATATTCAAGTATTTGAAAATGTATCCGTGCAAATCCGCGAACAAAACATAGGAATTCAGTGAACCGAATATAATTCAGTAAAATCCTTTGTAAAAGGGGAAATGGCATGG (double strand) [ldh promoter] | binds
CGCATTTCAATTATTCGACCTCTGATGTAAGACTTCTTTTCTCTTTTTTCAACTTACAACATAGTACAAATGACTAAACACCAAAATAAGTGTAATTGTCGAATAAATAATAATAATTTTTTAAAATAAAATTTTCACTCTTTATTGCATAAAAAAAACTTTGCACCATAAACATTCCTCATTTCGAGAAAAAGTTCGGCACAAAGATCCTTTACATCCTTTGTTACACACTTTTCCCCTCATAGTCTAGCAATTCATGGTTGCC (double strand) [nagR2 (nupR) promoter] | binds
GGTGAAATAGTATGGTCATCACGTAATAAAGTATCATCTAAATCTAAAACAATCATTTTATAAGTCATATAGAAAATTCCTTTCTTTAATTGAAATCAAAATACATGTTCATGAAGATGTTGAGGAATAATAGTAAGACATCAAACCTCTTTGAAAAGAAGTAGATAAATTATTATGAGTTGTTGCTCATAATATTGGTTAATAATCATTGGGGAAGAATAAAACCCCAATGATTAAAGTTTGATTTTATCGTAACAACTCTAAAGGTAGAGTGCAATAATGGAAGTT (double strand) [had promoter] | binds
TGCATACTTACTCACCATCCCATTAGAACAATCTAATTTTTTGAGTTGTCATACCACTACAATAATGTGAATTCGACAATTTTTGATATGAAATAATGCATAATATATATAAAATTCGGCAAATTTTTCATACAATTCATCTCACATACAATAATAGATTAGGAGTGTTATAGATGAATTATAG (double strand) [baci promoter] | binds
